From the supplement of paper PMC9112550, “Optimization of the antimicrobial peptide Bac7 by deep mutational scanning” (BMC Biology, 2022)

System: Escherichia coli TOP10
Experiment: shrunken log2 fold change of peptide-encoding DNA abundance (4.5 h post-induction vs induction); higher = less antimicrobial activity (less host growth inhibition)
Settings: time post-induction: 4.5 h; library: site-saturation at positions 5, 18, 19, 20
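Also: peptides expressed intracellularly from a pBAD plasmid library in pooled LB shake-flask culture, induced with 0.3% L-arabinose, DNA abundance read by NGS, three biological replicates, DESeq2 with apeglm shrinkage.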

| Sequence | shrunken log2 fold change |
| --- | --- |
| RRIRMRPPRLPRPRPRPKFEPRP | 0.109 |
| RRIRGRPPRLPRPRPRPPCAPRP | 0.978 |
| RRIRRRPPRLPRPRPRPFKPPRP | 0.174 |
| RRIRNRPPRLPRPRPRPQGMPRP | -0.0261 |
| RRIRCRPPRLPRPRPRPARLPRP | 0.395 |
| RRIRVRPPRLPRPRPRPQDYPRP | -0.125 |
| RRIRHRPPRLPRPRPRPWVTPRP | 0.0283 |
| RRIRKRPPRLPRPRPRPWQRPRP | -0.0202 |
| RRIRVRPPRLPRPRPRPHYSPRP | -0.424 |
| RRIRSRPPRLPRPRPRPDATPRP | 0.816 |
| RRIRVRPPRLPRPRPRPHRKPRP | 0.164 |
| RRIRGRPPRLPRPRPRPVKDPRP | 0.68 |
| RRIRERPPRLPRPRPRPTFMPRP | -0.157 |
| RRIRIRPPRLPRPRPRPHGEPRP | -0.178 |
| RRIRFRPPRLPRPRPRPMSGPRP | -0.0751 |
| RRIRCRPPRLPRPRPRPFISPRP | -0.689 |
| RRIRRRPPRLPRPRPRPAACPRP | 0.0555 |
| RRIRVRPPRLPRPRPRPIRIPRP | -0.0273 |
| RRIRSRPPRLPRPRPRPRMVPRP | 0.174 |
| RRIRWRPPRLPRPRPRPICHPRP | -0.0597 |
| RRIRVRPPRLPRPRPRPSYVPRP | -0.66 |
| RRIRMRPPRLPRPRPRPFHIPRP | -0.269 |
| RRIRARPPRLPRPRPRPHGAPRP | 0.52 |
| RRIRSRPPRLPRPRPRPFTPPRP | -0.0114 |
| RRIRSRPPRLPRPRPRPNMVPRP | -0.0658 |

| Sequence | shrunken log2 fold change |
| --- | --- |
| RRIRCRPPRLPRPRPRPQDGPRP | 0.143 |
| RRIRHRPPRLPRPRPRPVSCPRP | 0.011 |
| RRIRHRPPRLPRPRPRPIDMPRP | 0.0231 |
| RRIRDRPPRLPRPRPRPNKSPRP | -0.534 |
| RRIRLRPPRLPRPRPRPGLMPRP | -0.0199 |
| RRIRARPPRLPRPRPRPWPEPRP | 0.245 |
| RRIRSRPPRLPRPRPRPSMVPRP | -0.368 |
| RRIRVRPPRLPRPRPRPLRNPRP | 0.408 |
| RRIRWRPPRLPRPRPRPGHRPRP | 0.315 |
| RRIRNRPPRLPRPRPRPMQQPRP | -0.0561 |
| RRIRHRPPRLPRPRPRPTDPPRP | 0.138 |
| RRIRFRPPRLPRPRPRPAESPRP | -0.117 |
| RRIRSRPPRLPRPRPRPNYGPRP | -0.0945 |
| RRIRKRPPRLPRPRPRPFARPRP | 0.187 |
| RRIRYRPPRLPRPRPRPQKVPRP | -0.209 |
| RRIRHRPPRLPRPRPRPYVAPRP | -0.912 |
| RRIRWRPPRLPRPRPRPGLLPRP | 0.403 |
| RRIRLRPPRLPRPRPRPEYCPRP | 0.0552 |
| RRIRFRPPRLPRPRPRPWIFPRP | -0.00568 |
| RRIRKRPPRLPRPRPRPYVRPRP | 0.00408 |
| RRIRHRPPRLPRPRPRPQVIPRP | -0.0106 |
| RRIRVRPPRLPRPRPRPYHFPRP | -0.111 |
| RRIRQRPPRLPRPRPRPIQSPRP | 0.0147 |
| RRIRVRPPRLPRPRPRPVQDPRP | 0.0752 |
| RRIRSRPPRLPRPRPRPWGTPRP | -0.222 |

| Sequence | shrunken log2 fold change |
| --- | --- |
| RRIRGRPPRLPRPRPRPMDGPRP | -0.0481 |
| RRIRFRPPRLPRPRPRPKLRPRP | 0.147 |
| RRIRNRPPRLPRPRPRPTLWPRP | 0.326 |
| RRIRFRPPRLPRPRPRPDVFPRP | -0.119 |
| RRIRWRPPRLPRPRPRPHFVPRP | -0.438 |
| RRIRSRPPRLPRPRPRPFMQPRP | -0.638 |
| RRIRARPPRLPRPRPRPNVNPRP | -0.0484 |
| RRIRFRPPRLPRPRPRPLVEPRP | -0.0559 |
| RRIRLRPPRLPRPRPRPKQNPRP | 0.2 |
| RRIRFRPPRLPRPRPRPYKRPRP | -0.827 |
| RRIRMRPPRLPRPRPRPPKDPRP | 0.622 |
| RRIRQRPPRLPRPRPRPENYPRP | 0.309 |
| RRIRPRPPRLPRPRPRPMYVPRP | -1.06 |
| RRIRTRPPRLPRPRPRPIIAPRP | 0.00466 |
| RRIRLRPPRLPRPRPRPRIYPRP | -0.636 |
| RRIRHRPPRLPRPRPRPNPYPRP | -0.161 |
| RRIRDRPPRLPRPRPRPQSLPRP | -0.0208 |
| RRIRERPPRLPRPRPRPPWNPRP | -0.246 |
| RRIRSRPPRLPRPRPRPWCVPRP | -0.22 |
| RRIRQRPPRLPRPRPRPLQYPRP | -0.0199 |
| RRIRIRPPRLPRPRPRPLKVPRP | -0.29 |
| RRIRQRPPRLPRPRPRPTVAPRP | 0.118 |
| RRIRCRPPRLPRPRPRPEYIPRP | -0.144 |
| RRIRGRPPRLPRPRPRPSWNPRP | 0.285 |
| RRIRQRPPRLPRPRPRPATPPRP | 0.331 |

| Sequence | shrunken log2 fold change |
| --- | --- |
| RRIRDRPPRLPRPRPRPHCHPRP | -0.276 |
| RRIRARPPRLPRPRPRPCSNPRP | -0.153 |
| RRIRVRPPRLPRPRPRPMSEPRP | 0.0558 |
| RRIRGRPPRLPRPRPRPYVWPRP | 0.131 |
| RRIRKRPPRLPRPRPRPSFCPRP | -0.0321 |
| RRIRVRPPRLPRPRPRPILMPRP | -0.231 |
| RRIRWRPPRLPRPRPRPNNAPRP | -0.295 |
| RRIRERPPRLPRPRPRPWHYPRP | -0.067 |
| RRIRERPPRLPRPRPRPLWDPRP | 0.108 |
| RRIRRRPPRLPRPRPRPIRYPRP | 0.0578 |
| RRIRLRPPRLPRPRPRPGYQPRP | -0.133 |
| RRIRSRPPRLPRPRPRPPNHPRP | -0.16 |
| RRIRMRPPRLPRPRPRPYICPRP | -0.201 |
| RRIRMRPPRLPRPRPRPMARPRP | 0.465 |
| RRIRRRPPRLPRPRPRPKSAPRP | 0.237 |
| RRIRCRPPRLPRPRPRPKMFPRP | -0.265 |
| RRIRCRPPRLPRPRPRPSCTPRP | -0.287 |
| RRIRHRPPRLPRPRPRPIVHPRP | -0.125 |
| RRIRKRPPRLPRPRPRPRVDPRP | 0.0968 |
| RRIRTRPPRLPRPRPRPKPEPRP | 0.0154 |
| RRIRYRPPRLPRPRPRPKQPPRP | 0.102 |
| RRIRHRPPRLPRPRPRPALRPRP | 0.269 |
| RRIRNRPPRLPRPRPRPYMKPRP | -0.03 |
| RRIRSRPPRLPRPRPRPRIAPRP | 0.174 |
| RRIRQRPPRLPRPRPRPKQHPRP | -0.239 |

| Sequence | shrunken log2 fold change |
| --- | --- |
| RRIRIRPPRLPRPRPRPPGAPRP | 0.431 |
| RRIRTRPPRLPRPRPRPICGPRP | 0.0749 |
| RRIRDRPPRLPRPRPRPNQQPRP | -0.12 |
| RRIRHRPPRLPRPRPRPWFAPRP | -0.217 |
| RRIRFRPPRLPRPRPRPASQPRP | -0.0114 |
| RRIRPRPPRLPRPRPRPIHGPRP | -0.00809 |
| RRIRMRPPRLPRPRPRPGFTPRP | 0.00309 |
| RRIRCRPPRLPRPRPRPWCTPRP | 0.023 |
| RRIRQRPPRLPRPRPRPQINPRP | -0.285 |
| RRIRMRPPRLPRPRPRPISGPRP | 0.0247 |
| RRIRLRPPRLPRPRPRPIFNPRP | -0.221 |
| RRIRQRPPRLPRPRPRPANKPRP | -0.397 |
| RRIRCRPPRLPRPRPRPRAGPRP | 0.472 |
| RRIRERPPRLPRPRPRPGYGPRP | -0.165 |
| RRIRKRPPRLPRPRPRPFYEPRP | 0.0368 |
| RRIRERPPRLPRPRPRPYIKPRP | -0.573 |
| RRIRYRPPRLPRPRPRPICWPRP | 0.142 |
| RRIRSRPPRLPRPRPRPVTNPRP | -0.0242 |
| RRIRTRPPRLPRPRPRPKDIPRP | -0.482 |
| RRIRKRPPRLPRPRPRPMGTPRP | 0.335 |
| RRIRHRPPRLPRPRPRPCNEPRP | -0.00194 |
| RRIRIRPPRLPRPRPRPHMPPRP | -1.11 |
| RRIRGRPPRLPRPRPRPNVQPRP | 1.08 |
| RRIRHRPPRLPRPRPRPPDMPRP | 0.0267 |
| RRIRMRPPRLPRPRPRPSHSPRP | -0.266 |
